In this test the target is HLA-A2 on T2 cells. Nature of the test: T2 HLA-stabilization assay, HLA-A2 level by flow cytometry. The settings on record: remark: other sources report otherwise. For orientation: A flow cytometer gives signals particle by particle.

Molecule IISAVVGIL [GP2 peptide from HER2/neu] returned a mean fluorescence intensity (mean fluorescence intensity) of 682.

These data come from patent US20080260745A1.
